Measured values as given in patent publication US20100322893A1 (MEDLMMUNE, published 2010).
Where a chain is given by its changes, count along the chain named. Each block holds one molecule with its values, some of them ahead of it.

How the values were obtained:
B7-2 on Raji cells = B7-2 on Raji cells (UniProt P42081); experiment: cell-based or functional assay; set-up: unit not given beside the values
B7-1 on Raji cells = B7-1 on Raji cells (UniProt P33681); experiment: cell-based or functional assay; set-up: unit not given beside the values
[1] = target: T1, B7-1 coated on the plate of the stability RIA (human, UniProt P33681 35-242); experiment: stability RIA: 35S-labelled in vitro translated CTLA-4 on a plate coated with B7-1, non-reducing conditions
T1 construct: also called human B7-1 (RnD Systems, 140-B1)
T1 sequence (looked up): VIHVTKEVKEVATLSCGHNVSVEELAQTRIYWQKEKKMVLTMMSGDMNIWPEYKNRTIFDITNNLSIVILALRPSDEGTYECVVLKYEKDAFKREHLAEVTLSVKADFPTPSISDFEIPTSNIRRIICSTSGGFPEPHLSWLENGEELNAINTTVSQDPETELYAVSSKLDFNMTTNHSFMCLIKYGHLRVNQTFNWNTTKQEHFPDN
Description: (§1) CTLA-4 variants were screened for stability using the primary stability RIA (radio immunoassay) as described in Jermutus et al., (2001). In brief for each variant a linear DNA template was amplified, transcribed, the mRNA purified on G25 Sephadex® columns and quantified. For each variant in vitro translations in the presence of ³⁵S-labelled methionine were set up in duplicate at 30° C. for 30 min, one in non-reducing conditions and one in 10 mM DTT (dithiothreitol). The translations were stopped with PBS with 0.050 Tween 20, with DTT at the same concentration as the translations. The translation mixture was incubated on a plate coated with B7-1 for 1 hour at room temperature. Plates were washed three times in PBS with 0.05% Tween 20® and three times in PBS. The remaining radioactivity was eluted with 0.1 M triethylamine and quantified by liquid scintillation counting. A measure of the variants' stability was calculated as the percentage residual binding i.e. binding signal in presence of DTT, divided by binding signal in absence of DTT, multiplied by 100.

[2] = target: T1, B7-1 coated on the plate of the …; experiment: stability RIA: 35S-labelled in vitro translated CTLA-4 on a plate coated with B7-1, 10 mM DTT against no DTT
Description: as §1

Chain of B7-2 on Raji cells (P42081 24-329 limits assumed): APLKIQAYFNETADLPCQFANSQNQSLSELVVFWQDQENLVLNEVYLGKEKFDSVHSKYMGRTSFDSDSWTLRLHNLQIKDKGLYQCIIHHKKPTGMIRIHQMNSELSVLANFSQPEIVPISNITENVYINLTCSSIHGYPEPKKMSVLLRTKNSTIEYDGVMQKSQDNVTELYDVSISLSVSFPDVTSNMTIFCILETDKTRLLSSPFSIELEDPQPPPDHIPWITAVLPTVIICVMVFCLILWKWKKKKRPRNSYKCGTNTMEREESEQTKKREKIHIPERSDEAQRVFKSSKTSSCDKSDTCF

- EC50, inhibition of IL-2 production in the Jurkat and Raji dual cell assay (B7-1 and B7-2 both free) (B7-2 on Raji cells): 1.27e-08
- EC50, inhibition of IL-2 production in the Jurkat and Raji dual cell assay (B7-1 and B7-2 both free) (B7-1 on Raji cells): 1.27e-08
Molecule: CTLA-4 human wild-type (SEQ ID NO: 8), CTLA-4-Fc form (from UniProt P16410 37-161) (Fc fusion; in M (unit assumed))

- Signal DTT- (RIA signal after non-reducing conditions, signal over background) [1]: 13.2 signal over background
- % Residual Binding (signal in 10 mM DTT divided by signal without DTT, times 100) [2]: 75%
B1: CTLA-4 variant Var 3 (SEQ ID 7), monomeric form with serine at position 121, translated in vitro (receptor)
chain: AMHVAQPAVVLASSRGIASFVCEYAPPGKATEVRVTVLRQADSQVTEVWAATYMMGNESTFPDDSICTGTFSGNQVNLTIRGLRAMDTGLYICEVELMYPPPYYLGIGNGTQIYVIDPEPSPDSD
modifications: 35S-labelled methionine

- Signal DTT- (RIA signal after non-reducing conditions, signal over background) [1]: 2.6 signal over background
- % Residual Binding (signal in 10 mM DTT divided by signal without DTT, times 100) [2]: 55%
B2: CTLA-4 variant Var 1 (SEQ ID 5), monomeric form with serine at position 121, translated in vitro (receptor)
chain: B1 chain with I17T, W49Y, F61S, P62L, R81Q
modifications: 35S-labelled methionine

- Signal DTT- (RIA signal after non-reducing conditions, signal over background) [1]: 29.8 signal over background
- % Residual Binding (signal in 10 mM DTT divided by signal without DTT, times 100) [2]: 11%
B3: CTLA-4 variant Var 2 (SEQ ID 6), monomeric form with serine at position 121, translated in vitro (receptor)
chain: B1 chain with S43G, T46S, W49C, P62L
modifications: 35S-labelled methionine
